# Measurements published in patent CN113583125A (SUZHOU CENTERGENE PHARMACEUTICALS CO LTD, dated 2021).
# Experiments:
# [1] = target: T1, SEQ ID NO:1蛋白 (FSH、hCG、TSH、FSH-CTP和hLH共同α链) (Homo sapiens (Human), UniProt P01215 25-116); test: Phage ELISA screen, VHH displayed on phage
# T1 construct: Immunogen for the alpaca and target of the Phage ELISA screen
# hCG (人绒毛膜促性腺激素) = target: T2, hCG (人绒毛膜促性腺激素) (human, UniProt P0DN86 21-165); test: affinity chromatography, VHH coupled to CNBr-agarose, hCG from CHO supernatant, elution at pH 3, SDS-PAGE
# T2 construct: In the resin experiments hCG comes from the supernatant of CHO cells that express it stably
# T2 sequence (chain, as listed by the source, chain 1 of 2, other chains not shown): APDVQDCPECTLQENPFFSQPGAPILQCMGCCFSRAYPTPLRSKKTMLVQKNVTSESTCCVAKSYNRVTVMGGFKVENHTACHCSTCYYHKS
# hLH (人促黄体生成素) = hLH (人促黄体生成素) (human, UniProt P01229 21-141); test: affinity purification on VHH-agarose (CNBr), SDS-PAGE of the eluate
# hLH (人促黄体生成素), sequence (chain, as listed by the source, chain 1 of 2): as the sequence (chain, as listed by the source, chain 1 of 2, other chains not shown) above
# hLH (人促黄体生成素), sequence (P01229 21-141, chain 2 of 2): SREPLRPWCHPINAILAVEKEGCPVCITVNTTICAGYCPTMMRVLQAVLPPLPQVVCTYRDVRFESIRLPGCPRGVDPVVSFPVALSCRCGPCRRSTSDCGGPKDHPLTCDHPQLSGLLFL
# FSH (卵泡刺激素) [2] = target: T3, FSH (卵泡刺激素) (human, UniProt P01225 19-129); test: ELISA, plate coated with 10 ug/ml FSH, VHH from 1 mg/ml in 2-fold steps, detection with anti-6xHis-HRP
# T3 construct: also called hFSH
# T3 sequence (chain, as listed by the source, chain 1 of 2): as the sequence (chain, as listed by the source, chain 1 of 2, other chains not shown) above
# T3 sequence (P01225 19-129, chain 2 of 2): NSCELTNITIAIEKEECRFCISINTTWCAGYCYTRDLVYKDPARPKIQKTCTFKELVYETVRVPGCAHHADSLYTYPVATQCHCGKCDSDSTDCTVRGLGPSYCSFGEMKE
# FSH (卵泡刺激素) [3] = target: T3, FSH (卵泡刺激素); test: affinity purification on VHH-agarose (CNBr), SDS-PAGE of the eluate
# T1 sequence (P01215 25-116 limits assumed): as the sequence (chain, as listed by the source, chain 1 of 2, other chains not shown) above
binding result [1],binding result (hCG (人绒毛膜促性腺激素)),binding result (hLH (人促黄体生成素)),binding result (FSH (卵泡刺激素) [2]),binding result (FSH (卵泡刺激素) [3]),Binder
binds,binds,,,,SEQ ID NO:16蛋白 (VHH-sgs-HHHHHH) (VHH) VHH: QVQVVESGGGLVQAGDSLRLSCAASGRTFSSYAMGWFRQAPGKEREAVAAITWSGGSTYYADSVKGRFTISRDNTKNTVYLQMNSLKPEDTAVYYCAARDRADGSSWWDYWGQGTQVTVSS
binds,binds,,,,SEQ ID NO:18蛋白 (VHH-sgs-HHHHHH) (VHH) VHH: QVQLVESGGGLVQTGGSLRLSCAASGRTFSSYAMGWFRQAPGEEREAVAAITWSGGSTYYAASVQGRFTISRDNAKNTVYLQMNSLKPEDTAVYYCAARDRADGSSWWDYWGQGTQVTVSS
binds,,binds,binds,,"SEQ ID NO:17蛋白 (VHH-sgs-HHHHHH) (VHH, In the resin experiments it is coupled to agarose) VHH: QVQLVESGGGLVQTGGSLRLSCAASGRTFSSYAMGWFRQAPGEEREAVAALSWSGGSTYYAASVQGRFTISRDNAKNTVYLQMNSLKPEDTAVYYCAARDRADGSSWWDYWGQGTQVTVSS"
,binds,,,,"1G9E (SEQ ID NO:12, VHH-sgs-HHHHHH) (VHH) VHH: QVQLQESGGGLVQAGGSLRLSCAASGRTGSTYDMGWFRQAPGKERESVAAINWDSARTYYASSVRGRFTISRDNAKKTVYLQMNSLKPEDTAVYTCGAGEGGTWDSWGQGTQVTVSS"
,,binds,,binds,"SEQ ID NO:11蛋白 (1G9E突变体, VHH-sgs-HHHHHH) (VHH, Expressed in E. coli BL21 Star(DE3) and purified on nickel; In the resin experiments it is coupled to agarose) VHH: QVQLQESGGGLVQAGGSLRLSCAASGRTGSTYDMGWFRQAPGKERESVAAINWDSARTHYASSVRGRFTISRDNAKKTVYLQMNSLKPEDTAVYTCGAGEGGTWDSWGQGTQVTVSS"
